What all share (assay): positional peptide library pulldown on immobilised Nb, LC-MS of supernatant; signal ratio to control GFP-Nb (1 = not captured, near 0 = captured)
In assay [1] the target is T1, BC2T D2F.
T1 construct: positional scanning library member
T1 peptide: Ac-PFRKAAVSHWQQ-NH2
The method in brief:
(§1)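 Unbound peptide left in supernatant after 1 h pulldown in PBS/0.01% CHAPS measured by reversed-phase LC-MS (8–30% eluent B gradient, 20 min).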

The target in assay [2] is T2, BC2T R3F.
T2 construct: positional scanning library member
T2 peptide: Ac-PDFKAAVSHWQQ-NH2
The method in brief: as §1

The target of assay [3] is T3, BC2T K4F.
T3 construct: positional scanning library member
T3 peptide: Ac-PDRFAAVSHWQQ-NH2
The procedure, abridged:
as §1

Assay [4] concerns the target T4, BC2T A5F.
T4 construct: positional scanning library member
T4 peptide: Ac-PDRKFAVSHWQQ-NH2
The procedure, abridged: as §1

Assay [5] concerns the target T5, BC2T V7F.
T5 construct: positional scanning library member
T5 peptide: Ac-PDRKAAFSHWQQ-NH2
The procedure, abridged:
as §1

In assay [6] the target is T6, BC2T K4S.
T6 construct: positional scanning library member
T6 peptide: Ac-PDRSAAVSHWQQ-NH2
The method in brief: as §1

For assay [7], the target named is T7, BC2T D2T.
T7 construct: positional scanning library member
T7 peptide: Ac-PTRKAAVSHWQQ-NH2
The method in brief:
as §1

In assay [8] the target is T8, BC2T A6T.
T8 construct: positional scanning library member
T8 peptide: Ac-PDRKATVSHWQQ-NH2
The method in brief: as §1

Assay [9] deals with T9, BC2T K4N.
T9 construct: positional scanning library member
T9 peptide: Ac-PDRNAAVSHWQQ-NH2
The procedure, abridged:
as §1

Assay [10] addresses T10, BC2T V7Q.
T10 construct: positional scanning library member
T10 peptide: Ac-PDRKAAQSHWQQ-NH2
The method in brief: as §1

Assay [11] concerns the target T11, BC2T D2C(Abu) (SMILES …).
T11 construct: positional scanning library member
T11 peptide: Ac-P[GABA]RKAAVSHWQQ-NH2
The procedure, abridged: as §1

Assay [12] concerns the target T12, BC2T A5C(Abu) (SMILES …).
T12 construct: positional scanning library member
T12 peptide: Ac-PDRK[GABA]AVSHWQQ-NH2
The method in brief:
as §1

The target in assay [13] is T13, BC2T V7C(Abu) (also: Abu described as gamma-amino butyric acid).
T13 construct: positional scanning library member
T13 peptide: Ac-PDRKAA[GABA]SHWQQ-NH2
The procedure, abridged:
as §1

In assay [14] the target is T14, BC2T P1R.
T14 construct: positional scanning library member
T14 peptide: Ac-RDRKAAVSHWQQ-NH2
The method in brief:
as §1

The target in assay [15] is T15, BC2T V7R.
T15 construct: positional scanning library member
T15 peptide: Ac-PDRKAARSHWQQ-NH2
The procedure, abridged: as §1

For assay [16], the target named is T16, BC2T A5H.
T16 construct: positional scanning library member
T16 peptide: Ac-PDRKHAVSHWQQ-NH2
The procedure, abridged: as §1

The target in assay [17] is T17, BC2T K4D.
T17 construct: positional scanning library member
T17 peptide: Ac-PDRDAAVSHWQQ-NH2
The procedure, abridged: as §1

In assay [18] the target is T18, BC2T A5D.
T18 construct: positional scanning library member
T18 peptide: Ac-PDRKDAVSHWQQ-NH2
The method in brief:
as §1

In assay [19] the target is T19, BC2T V7D.
T19 construct: positional scanning library member
T19 peptide: Ac-PDRKAADSHWQQ-NH2
The procedure, abridged:
as §1

For assay [20], the target named is T20, BC2T A6E.
T20 construct: positional scanning library member
T20 peptide: Ac-PDRKAEVSHWQQ-NH2
The procedure, abridged: as §1

Assay [21] has as its target T21, BC2T S8K.
T21 construct: positional scanning library member
T21 peptide: Ac-PDRKAAVKHWQQ-NH2
The procedure, abridged: as §1

Positions count from the first letter of the chain named. Square brackets hold non-standard residues; d marks the D form. GABA = NCCCC(=O)O

B1: BC2-NbR106E (VHH)
VHH: QVQLVESGGGLVQPGGSLTLSCTASGFTLDHYDIGWFRQAPGKEREGVSCINNSDDDTYYADSVKGRFTIFMDNAKDTVYLQMNSLKPEDTAIYYCAEARGCKRGEYEYDFWGQGTQVTVSS
notes: headlock mutant of BC2-Nb; immobilised on beads in this assay
For B1, the ratio in assay [1] was found to be 0.2; in [2], 1; in assay [3] it was 0.6; in assay [4] it was 0.1; in assay [5] it was 0.2; in assay [6] it was 0.6. For the same molecule, the ratio is 0.1 in assay [7]; 0.3 in [8]; 0.8 in [9]; 0.4 in [10]; 0.2 in [11]; 0.1 in assay [12]. The ratio in assay [13] came out at 0.3; in [14], 0.2; in assay [15], 0.1; in assay [16], 0.2; in assay [17] it was 1; in assay [18], 0.9. Further, the ratio in assay [19] was 0.9; in assay [20], 1.1.

B2: BC2-NbR106S (VHH)
VHH: B1 VHH with E106S
notes: as for B1
Regarding B2, the ratio in assay [21] came out at 0.9.

Source of the values: US20170137467A1 (CHROMOTEK, published 2017).
